Laboratory results reported in PMC5201418.

Tests used:
[1] = target: Trypanosoma brucei S-adenosylmethionine decarboxylase, wild type (Trypanosoma brucei)
[2] = target: TbAdoMetDC H172A (Trypanosoma brucei)
[3] = target: N-terminally truncated TbAdoMetDCΔ26 (Trypanosoma brucei)
[4] = target: TbAdoMetDC-W137A/M146A (Trypanosoma brucei)

Chain of Trypanosoma brucei S-adenosylmethionine decarboxylase, wild type (Trypanosoma brucei) (P50244 1-85, tags left off, chain 1 of 2): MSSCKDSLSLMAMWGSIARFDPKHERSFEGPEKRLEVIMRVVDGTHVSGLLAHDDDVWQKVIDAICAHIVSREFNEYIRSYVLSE
Chain of Trypanosoma brucei S-adenosylmethionine decarboxylase, wild type (Trypanosoma brucei) (P50244 86-370 limits assumed, chain 2 of 2): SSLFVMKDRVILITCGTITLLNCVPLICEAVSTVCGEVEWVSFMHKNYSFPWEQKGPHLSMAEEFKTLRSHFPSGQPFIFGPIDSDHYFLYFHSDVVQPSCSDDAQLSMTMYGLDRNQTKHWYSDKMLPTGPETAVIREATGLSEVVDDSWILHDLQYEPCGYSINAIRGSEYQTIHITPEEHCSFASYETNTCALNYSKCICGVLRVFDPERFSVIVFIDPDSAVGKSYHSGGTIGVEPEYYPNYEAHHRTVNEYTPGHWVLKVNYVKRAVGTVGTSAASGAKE

Row | Substance | kcat/Km of AdoMet decarboxylation (14C-AdoMet, 37°C) by the TbAdoMetDC/prozyme heterodimer, with 4 mM putrescine [1] [s^−1M^−1] | kcat/Km of AdoMet decarboxylation (14C-AdoMet, 37°C) by the TbAdoMetDC/prozyme heterodimer, without putrescine [1] [s^−1M^−1] | kcat/Km of AdoMet decarboxylation (14C-AdoMet, 37°C) by the TbAdoMetDC/prozyme heterodimer, with 4 mM putrescine [2] [s^−1M^−1] | kcat/Km of AdoMet decarboxylation (14C-AdoMet, 37°C) by the TbAdoMetDC/prozyme heterodimer, without putrescine [2] [s^−1M^−1] | kcat/Km of AdoMet decarboxylation (14C-AdoMet, 37°C) by the TbAdoMetDC/prozyme heterodimer, with 4 mM putrescine [3] [s^−1M^−1] | kcat/Km of AdoMet decarboxylation (14C-AdoMet, 37°C) by the TbAdoMetDC/prozyme heterodimer, without putrescine [3] [s^−1M^−1] | kcat/Km of AdoMet decarboxylation (14C-AdoMet, 37°C) by the TbAdoMetDC/prozyme heterodimer, with 4 mM putrescine [4] [s^−1M^−1] | kcat/Km of AdoMet decarboxylation (14C-AdoMet, 37°C) by the TbAdoMetDC/prozyme heterodimer, without putrescine [4] [s^−1M^−1]
1 | prozyme-M148'A/Y152'A (natural protein) | 660 | 16 |  |  |  |  |  | 
2 | Trypanosoma brucei prozyme, wild type (natural protein) | 3200 | 2600 | 2100 | 93 | 7.6 | 2.2 | 87 | 5
